This is an account of results in doi:10.1101/568618 (bioRxiv, 2019).

To fix the notation:
B5: Arabidopsis COP1^349-675 WD40 domain (domain or fragment)
chain: TFTRYSRLRVIAEIRHGDIFHSANIVSSIEFDRDDELFATAGVSRCIKVFDFSSVVNEPADMQCPIVEMSTRSKLSCLSWNKHEKNHIASSDYEGIVTVWDVTTRQSLMEYEEHEKRAWSVDFSRTEPSMLVSGSDDCKVKVWCTRQEASVINIDMKANICCVKYNPGSSNYIAVGSADHHIHYYDLRNISQPLHVFSGHKKAVSYVKFLSNNELASASTDSTLRLWDVKDNLPVRTFRGHTNEKNFVGLTVNSEYLACGSETNEVYVYHKEITRPVTSHRFGSPDMDDAEEEAGSYFISAVCWKSDSPTMLTANSQGTIKVLVLAA
B6: COP1^(349-675, Lys422Ala) WD40 domain (domain or fragment)
chain: TFTRYSRLRVIAEIRHGDIFHSANIVSSIEFDRDDELFATAGVSRCIKVFDFSSVVNEPADMQCPIVEMSTRSALSCLSWNKHEKNHIASSDYEGIVTVWDVTTRQSLMEYEEHEKRAWSVDFSRTEPSMLVSGSDDCKVKVWCTRQEASVINIDMKANICCVKYNPGSSNYIAVGSADHHIHYYDLRNISQPLHVFSGHKKAVSYVKFLSNNELASASTDSTLRLWDVKDNLPVRTFRGHTNEKNFVGLTVNSEYLACGSETNEVYVYHKEITRPVTSHRFGSPDMDDAEEEAGSYFISAVCWKSDSPTMLTANSQGTIKVLVLAA
B11: recombinant light-activated full-length CRY2 (natural protein)
chain: MKMDKKTIVWFRRDLRIEDNPALAAAAHEGSVFPVFIWCPEEEGQFYPGRASRWWMKQSLAHLSQSLKALGSDLTLIKTHNTISAILDCIRVTGATKVVFNHLYDPVSLVRDHTVKEKLVERGISVQSYNGDLLYEPWEIYCEKGKPFTSFNSYWKKCLDMSIESVMLPPPWRLMPITAAAEAIWACSIEELGLENEAEKPSNALLTRAWSPGWSNADKLLNEFIEKQLIDYAKNSKKVVGNSTSLLSPYLHFGEISVRHVFQCARMKQIIWARDKNSEGEESADLFLRGIGLREYSRYICFNFPFTHEQSLLSHLRFFPWDADVDKFKAWRQGRTGYPLVDAGMRELWATGWMHNRIRVIVSSFAVKFLLLPWKWGMKYFWDTLLDADLECDILGWQYISGSIPDGHELDRLDNPALQGAKYDPEGEYIRQWLPELARLPTEWIHHPWDAPLTVLKASGVELGTNYAKPIVDIDTARELLAKAISRTREAQIMIGAAPDEIVADSFEALGANTIKEPGLCPSVSSNDQQVPSAVRYNGSKRVKPEEEEERDMKKSRGFDERELFSTAESSSSSSVFFVSQSCSLASEGKNLEGIQDSSDQITTSLGKNGCK

Experiment [1] has as its target UVR8^HY5C44 chimera (recombinant) (Arabidopsis | not stated). Put plainly: SEC.
In experiment [2] the target is B5. Put plainly: crystal structure.
Experiment [3] deals with B5. Put plainly: grating-coupled interferometry.
The target in experiment [4] is B5. Briefly: ITC. A general note: Isothermal titration calorimetry measures the heat released or taken up as one component is titrated into another.
Experiment [5] deals with B6. Put plainly: crystal structure.
The target in experiment [6] is B11. Briefly: grating-coupled interferometry.
Experiment [7] deals with T1, UVR8^12-381 (UVR8 β-propeller core) (Arabidopsis, UniProt Q9FN03 12-381).
T1 sequence: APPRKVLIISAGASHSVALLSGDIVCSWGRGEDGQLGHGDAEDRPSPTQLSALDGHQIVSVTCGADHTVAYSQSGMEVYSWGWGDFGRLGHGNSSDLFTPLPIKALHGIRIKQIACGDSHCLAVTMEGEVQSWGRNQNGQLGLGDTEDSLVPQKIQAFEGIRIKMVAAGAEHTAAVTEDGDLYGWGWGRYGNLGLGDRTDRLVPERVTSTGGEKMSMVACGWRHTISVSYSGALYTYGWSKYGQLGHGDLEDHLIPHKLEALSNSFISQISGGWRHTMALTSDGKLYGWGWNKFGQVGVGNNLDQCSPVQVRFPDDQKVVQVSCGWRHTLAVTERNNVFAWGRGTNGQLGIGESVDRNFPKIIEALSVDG
Put plainly: grating-coupled interferometry.

The next experiment concerns the target T2, full-length UVR8 (Arabidopsis, UniProt Q9FN03 1-440).
T2 sequence: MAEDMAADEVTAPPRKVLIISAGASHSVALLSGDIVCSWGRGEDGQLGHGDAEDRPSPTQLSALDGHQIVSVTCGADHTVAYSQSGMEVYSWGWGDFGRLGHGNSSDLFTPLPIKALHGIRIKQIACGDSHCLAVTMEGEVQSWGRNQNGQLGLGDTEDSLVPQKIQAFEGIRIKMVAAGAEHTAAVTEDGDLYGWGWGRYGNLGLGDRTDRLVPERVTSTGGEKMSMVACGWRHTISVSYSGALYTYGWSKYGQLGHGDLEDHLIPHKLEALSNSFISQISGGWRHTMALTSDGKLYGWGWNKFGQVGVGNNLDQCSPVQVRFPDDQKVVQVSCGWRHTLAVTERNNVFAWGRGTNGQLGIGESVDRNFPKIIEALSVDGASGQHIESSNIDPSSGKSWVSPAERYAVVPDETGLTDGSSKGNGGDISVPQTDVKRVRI
Briefly: grating-coupled interferometry.

For experiment [8], the target named is B6. Briefly: ITC.

For UVR8^HY5C44 chimera (recombinant), the stoichiometry N – broadly, the number of molecules, sites or subunits per partner or assembly – in [1] came out at 2.

B1: HYH^27-34 VP-peptide (peptide)
peptide: ELLMVPDM
In the case of B1, the binding result in experiment [2] is “binds”.

B2: CRY2^NC80 (CRY2^486-565) (domain or fragment)
chain: SRTREAQIMIGAAPDEIVADSFEALGANTIKEPGLCPSVSSNDQQVPSAVRYNGSKRVKPEEEEERDMKKSRGFDERELF
With B2, the binding result in experiment [3] is reported as “binds”.

B3: full-length HY5 protein (natural protein)
chain: MQEQATSSLAASSLPSSSERSSSSAPHLEIKEGIESDEEIRRVPEFGGEAVGKETSGRESGSATGQERTQATVGESQRKRGRTPAEKENKRLKRLLRNRVSAQQARERKKAYLSELENRVKDLENKNSELEERLSTLQNENQMLRHILKNTTGNKRGGGGGSNADASL
With B3, in [3], the Kd – broadly, the concentration at which binding is half-saturated – was roughly 1000 nM.

B4: HY5^39-48 VP-peptide (peptide)
peptide: EIRRVPEFGG
Consider B4, for which, in experiment [4], the Kd was roughly 20000 nM and the “fold stronger binding than UVR8^406-413” value was roughly 8 fold. Also, the binding result in experiment [5] is “binds”.

For B5, the binding result in experiment [6] is recorded as “binds”. Also, the Kd was roughly 500 nM in experiment [7] and roughly 1000 nM in the experiment with full-length UVR8.

For the molecule B6, the binding result in the experiment with full-length UVR8 is “binds”.

B7: COL3^287-294 VP-peptide (peptide)
peptide: GFGVVPSF
Regarding B7, the binding result in experiment [8] and in experiment [2] was “binds” in each case.

B8: CO^366-373 VP-peptide (peptide)
peptide: GYGIVPSF
As to B8, in [8], the “fold stronger binding than to wild-type COP1” value was roughly 4 fold. In addition, in experiment [4], the binding result is “binds”.

B9: CRY2^527-535 VP-peptide (peptide)
peptide: NDQQVPSAV
Consider B9, for which the “fold reduced binding against wild-type COP1” value in [8] is roughly 30 fold. For the same molecule, in [4], the binding result is on record as “binds”.

B10: HFR1^57-64 VP-peptide (peptide)
peptide: YLQIVPEI
Take B10: the binding result in experiment [2] was “binds”.

On to B11, for which the “fold increase in affinity over the isolated CRY2 VP-peptide” value in experiment [3] is roughly 200 fold.

B12: UVR8^406-413 VP-peptide (peptide)
peptide: RYAVVPDE
Turning to B12, the “fold increase in affinity over wild-type COP1” value in experiment [8] was roughly 10 fold. In [4], the binding result was “binds”.

B13: CRY1^544-552 VP-peptide (peptide)
peptide: EDQMVPSIT
In the case of B13, the binding result in experiment [8] and in experiment [2] was “binds” throughout.

B14: STO^240-247 VP-peptide (peptide)
peptide: EHFIVPDL
Regarding B14, in [2], the binding result is on record as “binds”.
